According to paper PMC10397247:

Experiments:
4H3974-bH = molecular target: T1, 4H3974-bH; test: two-hybrid library CCNG1;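 further: natural log of median RNA to DNA barcode read ratio; higher means stronger binding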
T1 chain: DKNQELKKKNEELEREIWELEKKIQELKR

4H4073-bH = molecular target: T2, 4H4073-bH; test: two-hybrid library CCNG1;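 further: natural log of median RNA to DNA barcode read ratio; higher means stronger binding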
T2 chain: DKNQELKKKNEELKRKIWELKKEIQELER

4H570-bH = molecular target: T3, 4H570-bH; test: two-hybrid library CCNG1;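 further: natural log of median RNA to DNA barcode read ratio; higher means stronger binding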
T3 chain: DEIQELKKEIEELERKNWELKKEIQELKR

4H619-bH = molecular target: T4, 4H619-bH; test: two-hybrid library CCNG1;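 further: natural log of median RNA to DNA barcode read ratio; higher means stronger binding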
T4 chain: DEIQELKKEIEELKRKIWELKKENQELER

4H906-bH = molecular target: T5, 4H906-bH; test: two-hybrid library CCNG1
T5 chain: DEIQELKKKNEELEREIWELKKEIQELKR

4H584-bH = molecular target: T6, 4H584-bH; test: two-hybrid library CCNG1
T6 chain: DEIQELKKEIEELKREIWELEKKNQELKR

4H3858-bH = molecular target: T7, 4H3858-bH; test: two-hybrid library CCNG1
T7 chain: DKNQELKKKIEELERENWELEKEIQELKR

4H3817-bH = molecular target: T8, 4H3817-bH; test: two-hybrid library CCNG1
T8 chain: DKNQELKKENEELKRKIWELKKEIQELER

4H850-bH = molecular target: T9, 4H850-bH; test: two-hybrid library CCNG1
T9 chain: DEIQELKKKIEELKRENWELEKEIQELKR

APC8401-AA = molecular target: T10, APC8401-AA; test: two-hybrid library CCmax; conditions: mean of both orientations
T10 chain: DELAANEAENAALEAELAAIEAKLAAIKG

APC3354-AA = molecular target: T11, APC3354-AA; test: two-hybrid library CCmax; conditions: mean of both orientations
T11 chain: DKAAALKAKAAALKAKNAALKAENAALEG

APC5531-AA = molecular target: T12, APC5531-AA; test: two-hybrid library CCmax; conditions: mean of both orientations
T12 chain: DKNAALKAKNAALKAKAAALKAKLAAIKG

APC2981-AA = molecular target: T13, APC2981-AA; test: two-hybrid library CCmax
T13 chain: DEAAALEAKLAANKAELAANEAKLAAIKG

APC7524-AA = molecular target: T14, APC7524-AA; test: two-hybrid library CCmax; conditions: mean of both orientations
T14 chain: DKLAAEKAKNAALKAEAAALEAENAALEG

APC3881-AA = molecular target: T15, APC3881-AA; test: two-hybrid library CCmax; conditions: mean of both orientations
T15 chain: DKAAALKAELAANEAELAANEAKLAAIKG

APC4100-AA = molecular target: T16, APC4100-AA; test: two-hybrid library CCmax; conditions: mean of both orientations
T16 chain: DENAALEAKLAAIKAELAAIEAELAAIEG

APC4336-AA = molecular target: T17, APC4336-AA; test: two-hybrid library CCmax; conditions: mean of both orientations
T17 chain: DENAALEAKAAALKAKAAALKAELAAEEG

APC9291-AA = molecular target: T18, APC9291-AA; test: two-hybrid library CCmax; conditions: mean of both orientations
T18 chain: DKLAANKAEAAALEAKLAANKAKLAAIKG

APC9141-AA = molecular target: T19, APC9141-AA; test: two-hybrid library CCmax; conditions: mean of both orientations
T19 chain: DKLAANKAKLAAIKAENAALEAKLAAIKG

APC8516-AA = molecular target: T20, APC8516-AA; test: two-hybrid library CCmax; conditions: mean of both orientations
T20 chain: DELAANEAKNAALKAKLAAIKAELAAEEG

APC5009-AA = molecular target: T21, APC5009-AA; test: two-hybrid library CCmax; conditions: mean of both orientations
T21 chain: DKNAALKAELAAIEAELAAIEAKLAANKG

APC9182-AA = molecular target: T22, APC9182-AA; test: two-hybrid library CCmax; conditions: mean of both orientations
T22 chain: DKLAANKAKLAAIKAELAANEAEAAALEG

APC542-AA = molecular target: T23, APC542-AA; test: two-hybrid library CCmax; conditions: mean of both orientations
T23 chain: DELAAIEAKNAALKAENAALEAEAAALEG

APC9806-AA = molecular target: T24, APC9806-AA; test: two-hybrid library CCmax; conditions: mean of both orientations
T24 chain: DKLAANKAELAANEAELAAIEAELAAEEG

APC3323-AA = molecular target: T25, APC3323-AA; test: two-hybrid library CCmax; conditions: mean of both orientations
T25 chain: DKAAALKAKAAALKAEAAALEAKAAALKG

APC3265-AA = molecular target: T26, APC3265-AA; test: two-hybrid library CCmax; conditions: mean of both orientations
T26 chain: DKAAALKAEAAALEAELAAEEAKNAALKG

APC6088-AA = molecular target: T27, APC6088-AA; test: two-hybrid library CCmax; conditions: mean of both orientations
T27 chain: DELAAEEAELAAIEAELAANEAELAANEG

4H626-bH = molecular target: T28, 4H626-bH; test: two-hybrid library CCNG1
T28 chain: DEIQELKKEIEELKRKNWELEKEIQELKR

4H3926-bH = molecular target: T29, 4H3926-bH; test: two-hybrid library CCNG1
T29 chain: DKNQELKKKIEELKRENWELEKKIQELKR

4H3628-bH = molecular target: T30, 4H3628-bH; test: two-hybrid library CCNG1
T30 chain: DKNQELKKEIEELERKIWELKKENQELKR

4H3613-bH = molecular target: T31, 4H3613-bH; test: two-hybrid library CCNG1
T31 chain: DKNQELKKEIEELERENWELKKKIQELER

4H591-bH = molecular target: T32, 4H591-bH; test: two-hybrid library CCNG1
T32 chain: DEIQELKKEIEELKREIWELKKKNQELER

B1: 4H3817-bH (peptide)
chain: DKNQELKKENEELKRKIWELKKEIQELER
B1 gave an interaction score (4H3974-bH) of 0.787, an interaction score (4H4073-bH) of -1.13 and an interaction score (4H570-bH) of -0.71. For the same binder, the interaction score (4H619-bH) was 0.591, the interaction score (4H906-bH) was -0.699 and the interaction score (4H584-bH) was -0.723. For the same binder, the interaction score (4H3858-bH) was -0.973, the interaction score (4H3817-bH) was 0.775 and the interaction score (4H850-bH) was -0.885.

B2: APC2981-AA (peptide)
chain: DEAAALEAKLAANKAELAANEAKLAAIKG
B2 gave an interaction score (APC8401-AA) of -1.71, an interaction score (APC3354-AA) of -2.3 and an interaction score (APC5531-AA) of -1.79. The interaction score (APC2981-AA) was -1.58, the interaction score (APC7524-AA) was -1.71 and the interaction score (APC3881-AA) was -1.67. For the same binder, the interaction score (APC4100-AA) was -1.62, the interaction score (APC4336-AA) was -2.05 and the interaction score (APC9291-AA) was -1.74. It also gave an interaction score (APC9141-AA) of -1.53, an interaction score (APC8516-AA) of -1.73 and an interaction score (APC5009-AA) of -1.75. The interaction score (APC9182-AA) was -1.76, the interaction score (APC542-AA) was -1.62 and the interaction score (APC9806-AA) was -1.51. For the same binder, the interaction score (APC3323-AA) was -1.68, the interaction score (APC3265-AA) was -1.62 and the interaction score (APC6088-AA) was -1.49.

B3: 4H3613-bH (peptide)
chain: DKNQELKKEIEELERENWELKKKIQELER
Work on B3 yielded an interaction score (4H3974-bH) of -1.15, an interaction score (4H626-bH) of -1.94 and an interaction score (4H570-bH) of -0.821. The interaction score (4H3926-bH) was 1.59, the interaction score (4H906-bH) was -1.07 and the interaction score (4H3628-bH) was -0.609. The interaction score (4H3613-bH) was 0.898, the interaction score (4H591-bH) was -2.09 and the interaction score (4H3858-bH) was 0.0148. It also gave an interaction score (4H3817-bH) of -0.0066 and an interaction score (4H850-bH) of 1.37.
